Data: patent US20230008090A1

Assays:
[1] = biological target: human CD3 on Jurkat.2B8 (CD3+/EGFR-) cells (human) (UniProt P07766); assay: flow cytometry on Jurkat.2B8 (CD3+/EGFR-) cells
[2] = biological target: cynomolgus monkey EGFR on CHOK1-cynoPro1 (EGFR+/CD3-) cells (cynomolgus monkey); assay: flow cytometry on CHOK1-cynoPro1 cells
[3] = biological target: cynomolgus monkey CD3 on cynomolgus monkey PBMC / T cells (cynomolgus monkey) (UniProt Q95LI5); assay: flow cytometry on cyno T cells (cynomolgus monkey PBMC)
Sequence of cynomolgus monkey CD3 on cynomolgus monkey PBMC / T cells (cynomolgus monkey) (Q95LI5 22-198): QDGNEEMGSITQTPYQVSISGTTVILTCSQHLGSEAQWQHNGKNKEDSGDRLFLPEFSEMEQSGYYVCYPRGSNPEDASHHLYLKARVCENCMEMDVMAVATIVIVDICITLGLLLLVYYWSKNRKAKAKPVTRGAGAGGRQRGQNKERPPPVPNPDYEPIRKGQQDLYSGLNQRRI

[4] = biological target: human EGFR on tumor cells (A431, HT-29, MCF-7) (human) (UniProt P00533); assay: flow cytometry on A431 (EGFR+/CD3-) cells

Sequence of human CD3 on Jurkat.2B8 (CD3+/EGFR-) cells (human) (P07766 23-207): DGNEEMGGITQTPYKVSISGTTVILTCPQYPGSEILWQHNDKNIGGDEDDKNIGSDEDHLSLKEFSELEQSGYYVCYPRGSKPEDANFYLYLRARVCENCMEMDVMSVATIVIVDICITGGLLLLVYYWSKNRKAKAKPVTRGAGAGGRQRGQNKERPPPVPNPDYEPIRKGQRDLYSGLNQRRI

Top MFI [1]: 235 MFI | Top MFI [2]: 38 MFI | Top MFI [3]: 210 MFI | Top MFI [4]: 137 MFI
Substance: IgG4 isotype control (antibody)
